Measured values as given in doi:10.1101/2022.09.05.506711.

Target: Francisella tularensis class II fructose-1,6-bisphosphatase (Francisella tularensis)
Test: crystal structure

“Francisella tularensis class II fructose-1,6-bisphosphatase (enzyme)” gave a stoichiometry N of 4.
